Experimental data: US20190381171A1, “CO-USE OF ANTI-BCMA ANTIBODY AND ANTIBODY-COUPLED T CELL RECEPTOR (ACTR) IN CANCER THERAPY AND B CELL DISORDERS” (UNUM THERAPEUTICS INC., priority 2017, published 2019)

Assays:
[1] = system: NCI-H929 target cells; assay: ACTR T-cell cytokine release (IFNγ, IL2; Meso Scale Discovery) in co-culture with target cells and antibody; type: cell-based, human; details: T-cells expressing ACTR variant SEQ ID NO: 1, E:T 4:1, 24 hours, increasing antibody concentration (FIG. 4 chimeric, FIG. 9 humanized)
Method: T-cells expressing ACTR variant SEQ ID NO: 1 (effector; E) and target cells (target; T) were incubated at a 4:1, effector-to-target ratio (120,000 T cells; 30,000 target cells) with increasing concentrations of various chimeric antibodies in a 200-μL reaction volume in RPMI 1640 media supplemented with 10% fetal bovine serum. In FIG. 4, the chimeric antibodies included fucosylated and afucosylated (SEA) versions of the SG16.17 and SG16.45 anti-BCMA antibodies at a concentration range of 100-0.0005 μg/mL. In FIG. 9, humanized afucosylated (SEA) SG16.17 antibody was used at a concentration range of 3.8-0.002 μg/mL. […] Supernatants were subsequently analyzed for IFNγ and IL2 using the Meso Scale Discovery V-Plex Human IFN-γ Kit (K151QOD-4) and V-Plex Human IL-2 Kit (K151QQD-4). Briefly, the Proinflammatory Calibrator Blend, Detection Antibody Solution, and Read Buffer were prepared according to manufacturer protocols. […] Read Buffer (150 μL) was added to the plate and the plates were run on the MSD Quickplex SQ 120.
For these experiments, BCMA+ HER2− NCI− H929 and BCMA− HER2+ SKBR3 target cells were used. […] Supernatants were subsequently analyzed for IFNγ using the Meso Scale Discovery V-Plex Human IFN-γ Kit (K151QOD-4). Briefly, the Proinflammatory Calibrator Blend, Detection Antibody Solution, and Read Buffer were prepared according to manufacturer protocols. […]

[2] = system: NCI-H929 target cells; assay: Activation markers (CD25, CD69) on ACTR T-cells by flow cytometry; type: cell-based, human; details: ACTR variant SEQ ID NO: 1, E:T 1:1, 1 μg/mL antibody, 24 hours
Method: T-cells (effector; E) and target cells (target; T) were incubated at a 1:1, effector-to-target ratio (30,000 T cells; 30,000 target cells) with 1 μg/mL of anti-BCMA antibodies in a 200-μL reaction volume in RPMI 1640 media supplemented with 10% fetal bovine serum. Reactions were incubated in a CO2 (5%) incubator at 37 degrees C. for 24 hours. Geometric Mean Fluorescence intensity (gMFI) of two activation markers, CD25 and CD69 were determined in the total CD3+ CD16+ ACTR T-cell gate via flow cytometry. Briefly, cells were washed twice in staining buffer before being stained with a Live/Dead eFluor-450 dye for 30 min at 4 degrees C. After incubating in the live/dead cell stain, cells were washed twice and incubated with 100 μL of an antibody cocktail consisting of AF488-conjugated anti-human CD3 antibody, APC-conjugated anti-human CD16 antibody, PerCP-Cy5.5-conjugated anti-human CD25 antibody, and BV510-conjugated anti-human CD69 antibody. Subsequently, cells were washed twice, fixed, permeabilized, and stained for intracellular molecules prior to detection via flow cytometry. […]
T-cells (effector; E) and NCI-H929 target cells (target; T) were incubated at varying effector-to-target ratios in the presence of 1 μg/mL hSG16.17 SEA antibody. […] The geometric mean fluorescence intensity of CD25 was calculated within the CD3+ T-cell gate and was plotted as a function of E:T ratio (FIG. 17).

B1: cSG16.45SEA: afucosylated (SEA) version of the chimeric SG16.45 anti-BCMA antibody (antibody, V domains shown)
VH: EVQLVESGGGLVQPGRSLKLSCVASGFTFNDHWMTWIRQAPGRGLEWISSITNTGGATYYLDSVKGRFTISRDNAKSTLYLQMNSLRSEDTATYYCTSPGLYFDYWGQGVMVTVSS
VL: EIVLTQSPTTTAASPGEKVTITCLATSSVSVMYWYQHKSGASPKLLIYSTSSLASGVPDRFSGSGSGTSYSLTINTMEAEDAATYYCHQWSSDPPTFGSGTKLEIKR
Question: What does the source list for B1?
Answer: ACTR T-cell IFNγ and IL2 release [1]: increased potency in cytokine release when compared to their fucosylated counterparts; levels of activation markers CD25 and CD69 (gMFI) on ACTR T-cells [2]: enhanced expression of CD25 and CD69 when compared to incubations with their fucosylated counterparts
